# In patent US20040018971A1 (published 2004):
# B1: HER2/neu peptide, position 739, 9 amino acids (peptide)
# peptide: WIPDGENVK
# notes: Synthetic peptide; also called Her2/neu.739 (9-mer)
# B2: HER2/neu peptide, position 973, 9 amino acids (peptide)
# peptide: VSEFSRMAR
# notes: Synthetic peptide; also called Her2/neu.973 (9-mer)
# B3: HER2/neu peptide, position 888, 9 amino acids (peptide)
# peptide: WMALESILR
# notes: Synthetic peptide; also called Her2/neu.888 (9-mer)
# B4: HER2/neu peptide, position 129, 10 amino acids (peptide)
# peptide: VTGASPGGLR
# notes: Synthetic peptide; also called Her2/neu.129 (10-mer)
# B5: HER2/neu peptide, position 83, 10 amino acids (peptide)
# peptide: YVLIAHNQVR
# notes: Synthetic peptide; also called Her2/neu.83 (10-mer)
# B6: HER2/neu peptide, position 835, 10 amino acids (peptide)
# peptide: YLEDVRLVHR
# notes: Synthetic peptide; also called Her2/neu.835 (10-mer)
# B7: HER2/neu peptide, position 959, 10 amino acids (peptide)
# peptide: WMIDSECRPR
# notes: Synthetic peptide; also called Her2/neu.959 (10-mer)
# B8: HER2/neu peptide, position 888, 10 amino acids (peptide)
# peptide: WMALESILRR
# notes: Synthetic peptide; also called Her2/neu.888 (10-mer)
# Target: T1, HLA-DRB1*0101 (human)
# T1 construct: also called DR1
# Test: competition with 125I probe peptide, purified HLA
row,IC50 [nM],Binder
1,833,ETELVEPLTPSGAMP [Her2/neu.693]
2,5000,DMKLRLPASPETHLD [Her2/neu.30]
3,1040,ITDFGLARLLDIDET [Her2/neu.861]
4,26,LTSIISAVVGILLVV [Her2/neu.651]
5,5000,GTDMKLRLPASPETH [Her2/neu.28]
6,2.3,KVPIKWMALESILRR [Her2/neu.883]

# Target: T2, HLA-A*0301 (human)
# T2 construct: also called A3
# Test: competition with 125I-labelled standard peptide for purified HLA, gel filtration
row,relative binding ratio,Binder
1,0.0002 ratio (IC50 of standard peptide / IC50 of test peptide),B1
2,-0.0002 ratio (IC50 of standard peptide / IC50 of test peptide),B2
3,-0.0002 ratio (IC50 of standard peptide / IC50 of test peptide),B3
4,0.0002 ratio (IC50 of standard peptide / IC50 of test peptide),B4
5,0.0043 ratio (IC50 of standard peptide / IC50 of test peptide),B5
6,0.0003 ratio (IC50 of standard peptide / IC50 of test peptide),B6
7,-0.0002 ratio (IC50 of standard peptide / IC50 of test peptide),B7
8,0.0085 ratio (IC50 of standard peptide / IC50 of test peptide),B8

# Target: T3, HLA-A*1101 (human)
# T3 construct: The construct is not described
# Test: as above
row,relative binding ratio,Binder
1,0.0001 ratio (IC50 of standard peptide / IC50 of test peptide),B1
2,0.0021 ratio (IC50 of standard peptide / IC50 of test peptide),B2
3,-0.0002 ratio (IC50 of standard peptide / IC50 of test peptide),B3
4,0.0005 ratio (IC50 of standard peptide / IC50 of test peptide),B4
5,0.0013 ratio (IC50 of standard peptide / IC50 of test peptide),B5
6,0.0001 ratio (IC50 of standard peptide / IC50 of test peptide),B6
7,0.0002 ratio (IC50 of standard peptide / IC50 of test peptide),B7
8,0.0016 ratio (IC50 of standard peptide / IC50 of test peptide),B8

# Target: HLA-A*1101 (purified HLA class I molecule) (human)
# Test: inhibition of 125I probe peptide binding to purified HLA; ratio to standard peptide
row,relative binding ratio,Binder
1,0.0002 ratio (IC50 standard / IC50 test),"GMSYLEDVR (also called Her2/neu.832 (9-mer)) [HER2/neu peptide, position 832, 9 amino acids]"
2,0.001 ratio (IC50 standard / IC50 test),"FSRMARDPQR (also called Her2/neu.976 (10-mer)) [HER2/neu peptide, position 976, 10 amino acids]"
3,0.0041 ratio (IC50 standard / IC50 test),"GAMPNQAQMR (also called Her2/neu.704 (10-mer)) [HER2/neu peptide, position 704, 10 amino acids]"
4,0.0043 ratio (IC50 standard / IC50 test),"GAGGMVHHR (also called Her2/neu.1038 (9-mer)) [HER2/neu peptide, position 1038, 9 amino acids]"

# Target: T4, HLA-A*0101 (human)
# T4 construct: also called HLA-A1
# Test: inhibition of 125I-labeled probe peptide binding to purified HLA-A*0101, gel filtration
row,IC50 [nM],Binder
1,1.9,HTDMLRHLY (HER2/neu analog peptide) [Her2/neu.42.T2]
2,455,"ASCVTACPY (HER2/neu peptide, 9-mer) [Her2/neu.293]"
3,49,ATCVTACPY (HER2/neu analog peptide) [Her2/neu.293.T2]
4,50,GTDMKLRLPY (HER2/neu analog peptide) [Her2/neu.28.Y10]
5,89,ETHLDMLRHLY (HER2/neu peptide) [Her2/neu.40]
6,3.9,ETMPNPEGRY (HER2/neu analog peptide) [Her2/neu.280.T2]
7,0.9,GTDLFEDNY (HER2/neu analog peptide) [Her2/neu.104.D3]
8,250,VTACPYNY (HER2/neu peptide) [Her2/neu.296]
9,250,EADQCVACAHY (HER2/neu peptide) [Her2/neu.580]
10,5560,VFETLEEITGY (HER2/neu peptide) [Her2/neu.399]
11,58,"PTDCCHEQCAA (HER2/neu peptide, 11-mer) [Her2/neu.232]"

# Target: T5, HLA-A*0301 (human)
# T5 construct: also called HLA-A3
# Test: inhibition of 125I-labelled standard peptide 941.12 binding to purified HLA-A*0301, gel filtration
row,relative binding ratio (IC50 of standard peptide / IC50 of test peptide) [ratio],Binder
1,0.0002,"PLQRLRIVR [HER2/neu peptide, position 95, 9 amino acids]"
2,0.0003,"PASPLDSTFY [HER2/neu peptide, position 996, 10 amino acids]"
3,0.0003,"PTHDPSPLQR (H was used here) [HER2/neu peptide, position 1102, 10 amino acids]"
4,0.0029,"QVRQVPLQR [HER2/neu peptide, position 90, 9 amino acids]"
5,0.0002,"PLPSETDGY [HER2/neu peptide, position 1119, 9 amino acids]"
6,0.011,"QLVTQLMPY [HER2/neu peptide, position 795, 9 amino acids]"
7,0.0007,"QVCTGTDMK [HER2/neu peptide, position 24, 9 amino acids]"
8,0.0003,"PSGVKPDLSY [HER2/neu peptide, position 601, 10 amino acids]"
9,0.0002,"PLTCSPQPEY [HER2/neu peptide, position 1130, 10 amino acids]"
10,0.0046,"QALLHTANR [HER2/neu peptide, position 491, 9 amino acids]"

# Target: T6, HLA-A*0301 (purified HLA class I molecule) (human)
# T6 construct: also called A3
# Test: inhibition of 125I probe peptide binding to purified HLA; ratio to standard peptide; minus sign not explained
row,relative binding ratio,Binder
1,-0.0002 ratio (IC50 standard / IC50 test),"GMSYLEDVR (also called Her2/neu.832 (9-mer)) [HER2/neu peptide, position 832, 9 amino acids]"
2,-0.0002 ratio (IC50 standard / IC50 test),"FSRMARDPQR (also called Her2/neu.976 (10-mer)) [HER2/neu peptide, position 976, 10 amino acids]"
3,-0.0002 ratio (IC50 standard / IC50 test),"GAMPNQAQMR (also called Her2/neu.704 (10-mer)) [HER2/neu peptide, position 704, 10 amino acids]"
4,-0.0002 ratio (IC50 standard / IC50 test),"GAGGMVHHR (also called Her2/neu.1038 (9-mer)) [HER2/neu peptide, position 1038, 9 amino acids]"

# Target: T7, HLA-A*0301 (human)
# T7 construct: also called HLA-A3
# Test: competition with 125I-labelled probe peptide for purified HLA-A*0301, gel filtration; ratio to standard peptide 941.12
row,relative binding ratio (IC50 of standard peptide / IC50 of test peptide) [ratio],Binder
1,0.0003,"DVRPQPPSPR (Synthetic peptide) [HER2/neu peptide, position 1144, 10 amino acids (DVRPQPPSPR)]"
2,0.0002,"ELMTFGAKPY (Synthetic peptide) [HER2/neu peptide, position 914, 10 amino acids (ELMTFGAKPY)]"
3,0.0018,"DLAARNVLVK (Synthetic peptide) [HER2/neu peptide, position 845, 10 amino acids (DLAARNVLVK)]"
4,0.0005,"DLSYMPIWK (Synthetic peptide) [HER2/neu peptide, position 607, 9 amino acids (DLSYMPIWK)]"
5,0.0002,"EVTAEDGTQR (Synthetic peptide) [HER2/neu peptide, position 321, 10 amino acids (EVTAEDGTQR)]"
6,0.0002,"ETLEEITGY (Synthetic peptide) [HER2/neu peptide, position 401, 9 amino acids (ETLEEITGY)]"
7,-0.0002,"DSECRPRFR (Synthetic peptide) [HER2/neu peptide, position 962, 9 amino acids (DSECRPRFR)]"
8,0.0003,"ESMPNPEGR (Synthetic peptide) [HER2/neu peptide, position 280, 9 amino acids (ESMPNPEGR)]"
9,0.0003,"ETEYHADGGK (Synthetic peptide) [HER2/neu peptide, position 874, 10 amino acids (ETEYHADGGK)]"
10,0.0002,"ELHCPALVTY (Synthetic peptide) [HER2/neu peptide, position 265, 10 amino acids (ELHCPALVTY)]"

# Target: HLA-A*1101 (human)
# Test: competition with 125I-labelled probe peptide for purified HLA-A*1101, gel filtration; ratio to standard peptide 940.06 [..] (6.0 nM)
row,relative binding ratio (IC50 of standard peptide / IC50 of test peptide) [ratio],Binder
1,0.0001,YLEDVRLVHR (also called Her2/neu.835)
2,0.0005,VTGASPGGLR (also called Her2/neu.129)
3,0.011,"VVQGNLELTY (also called Her2/neu.55) [HER2/neu peptide, position 55, 10 amino acids]"
4,-0.0002,WMALESILR (also called Her2/neu.888)
5,0.0002,WMIDSECRPR (also called Her2/neu.959)
6,0.012,"YVMAGVGSPY (also called Her2/neu.772) [HER2/neu peptide, position 772, 10 amino acids]"
7,0.0001,"WIPDGENVK (also called Her2/neu.739) [HER2/neu peptide, printed position 730 (taken as 739), 9 amino acids]"
8,0.0016,WMALESILRR (also called Her2/neu.888)
9,0.0013,YVLIAHNQVR (also called Her2/neu.83)
